Data set [1] addresses T1, BT4663-RRAD C1174A;H1175D (Bacteroides thetaiotaomicron VPI 5482) (UniProt Q89YR8).
T1 sequence: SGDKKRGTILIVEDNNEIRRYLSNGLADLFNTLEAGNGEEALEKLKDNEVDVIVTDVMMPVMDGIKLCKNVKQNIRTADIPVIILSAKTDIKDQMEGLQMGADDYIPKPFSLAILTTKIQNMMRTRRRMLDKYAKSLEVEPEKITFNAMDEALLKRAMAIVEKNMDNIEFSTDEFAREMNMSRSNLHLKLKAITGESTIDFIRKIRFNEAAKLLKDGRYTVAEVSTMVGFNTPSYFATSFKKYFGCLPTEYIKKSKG
Kind of data set: EMSA. The following applies: 50 mM Tris pH 7.6, 200 mM NaCl, 2.5% glycerol, 2 mM MgCl2, 0.5 mM DTT, 0.1 ug/uL BSA, 10 ng/uL salmon sperm DNA, ~2.5 ng/uL DNA; 30 min, temperature not …. A general note: In EMSA bound probe runs differently from free probe, usually more slowly.

In data set [2] the target is T2, BT4663-RRAG C1174A;H1175G (Bacteroides thetaiotaomicron VPI 5482) (UniProt Q89YR8).
T2 sequence: T1 sequence with D79G
Kind of data set: EMSA. As to conditions: 50 mM Tris pH 7.6, 200 mM NaCl, 2.5% glycerol, 2 mM MgCl2, 0.5 mM DTT, 0.1 ug/uL BSA, 10 ng/uL salmon sperm DNA, ~2.5 ng/uL DNA; 30 min, temperature not ….

Where a chain is given by its changes, count along the chain named.

What is called Kd is a measure of binding affinity in units of concentration. Read a low Kd as higher affinity.

For the sequence “GATGGTAGTGTGGGGTCTCATGCCTAGGATACAGGAGATAAACAGCTTTTTTAAACAAAAACAACATATGTCTCAACAAATTTGATATCAAAAAAATCATTTTTGAACAAAGTATGAACAACCTAAATTAAAGAATCTAATTAATGAGGTTACATTTGCAACAGTAAAATAACACTTTTAATAATTATAAAACCTAATAAAGTATGAAGAACGAGACCGAAATTCAATAAGGAGG (double strand) [bt4662 promoter fragment]”, the Kd in data set [1] and in data set [2] was 900 nM in each case.
